The target of one test is T1, GLP-1 receptor (Homo sapiens, UniProt P43220).
T1 construct: expressed in transfected cells; host or cells: CHO-K1/GLP1/Gα15
As to the kind of experiment: Cell-based GLP-1 receptor assay, intracellular calcium mobilization in CHO-K1/GLP1/Gα15 (FlexStation). As to conditions: Calcium-4. The procedure:
The intracellular calcium change was measured by FlexStation. […] A lower EC50 indicates a higher activity.

For test [1], the target named is GLP-1 receptor on CHO-K1/GLP1/Gα15 cells (UniProt P43220). Nature of the test: cell-based or functional assay.
For test [2], the target named is T2, GLP-1 receptor (covalently immobilized on the Biacore biosensor surface) (UniProt P43220 24-145, limits assumed).
T2 construct: also called the receptor
As to the kind of experiment: Biacore (SPR), GLP-1 receptor covalently immobilized, peptide injected.

Chain of GLP-1 receptor on CHO-K1/GLP1/Gα15 cells (P43220 24-463 limits assumed): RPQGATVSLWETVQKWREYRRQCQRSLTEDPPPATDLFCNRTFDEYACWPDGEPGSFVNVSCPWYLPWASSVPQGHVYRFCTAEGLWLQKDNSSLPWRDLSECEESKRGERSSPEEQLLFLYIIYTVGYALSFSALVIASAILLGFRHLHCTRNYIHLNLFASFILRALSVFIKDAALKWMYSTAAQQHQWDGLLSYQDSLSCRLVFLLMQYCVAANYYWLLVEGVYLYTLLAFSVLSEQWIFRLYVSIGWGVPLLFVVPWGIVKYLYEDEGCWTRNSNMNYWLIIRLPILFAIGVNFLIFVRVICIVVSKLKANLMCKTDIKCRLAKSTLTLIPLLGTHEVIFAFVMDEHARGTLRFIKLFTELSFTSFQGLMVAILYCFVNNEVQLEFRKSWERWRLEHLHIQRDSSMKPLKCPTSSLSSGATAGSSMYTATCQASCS
T1 sequence (P43220 24-463, species assumed): as the sequence (P43220 24-463 limits assumed) above

Take “5 kDa-PEG-Cys(37)-GLP-1 (HAEGTFTSDVSSYLEGQAAKEFIAWLVKGRC)”: the EC50 in the test with GLP-1 receptor is 0.336 µM.

B1: 5 kDa-PEG-Cys(37)-GLP-1 (peptide)
peptide: HAEGTFTSDVSSYLEGQAAKEFIAWLVKGRC
modifications: 5 kDa cysteine-reactive maleimide-PEG on the added Cys at position 37
notes: range 27-56; also called 5 kDa-PEG-GLP-1 (Cys analog); C-terminally PEGylated GLP-1
As for B1, in test [1], the EC50 of intracellular calcium mobilization (Calcium-4, FlexStation RFU) was 0.336 µM. Besides, the dissociation constant Kd in test [2] turned out to be 1.6 µM.

One may read the EC50 as the concentration giving half of the maximal effect. As usually defined, the Kd is the equilibrium constant for the complex coming apart.

The values above are taken from US20160151511A1, “PROTEINS AND PROTEIN CONJUGATES WITH INCREASED HYDROPHOBICITY” (priority 2014, published 2016).
